What was measured:
HLA-B*07:02 [1] = test: IEDB peptide-MHC binding, purified MHC/competitive/fluorescence; filed as Kd, often an IC50 or EC50 that approximates it; ≥ and ≤ were set here for values at or beyond the usual limits of such assays
HLA-A*01:01 [2] = test: IEDB peptide-MHC binding, purified MHC/competitive/fluorescence; ≥ and ≤ were set here for values at or beyond the usual limits of such assays
HLA-C*06:02 = test: IEDB peptide-MHC binding, purified MHC/direct/fluorescence; filed as Kd, often an IC50 or EC50 that approximates it; ≥ and ≤ were set here for values at or beyond the usual limits of such assays
HLA-C*14:02 = test: as above
HLA-C*12:03 = test: as above
HLA-C*15:02 = test: as above
HLA-B*48:01 = test: IEDB peptide-MHC binding, purified MHC/competitive/fluorescence; filed as Kd, often an IC50 or EC50 that approximates it; ≥ and ≤ were set here for values at or beyond the usual limits of such assays
HLA-A*26:02 = test: IEDB peptide-MHC binding, purified MHC/direct/fluorescence; filed as Kd, often an IC50 or EC50 that approximates it; ≥ and ≤ were set here for values at or beyond the usual limits of such assays; conditions: source organism: Geobacillus sp. WCH70
HLA-B*15:01 = test: IEDB peptide-MHC binding, purified MHC/competitive/fluorescence; filed as Kd, often an IC50 or EC50 that approximates it; ≥ and ≤ were set here for values at or beyond the usual limits of such assays; conditions: source organism: Shigella flexneri 2a str. 301
HLA-B*35:01 = test: as above; conditions: source organism: Shigella flexneri 2a str. 301
HLA-B*40:01 = test: IEDB peptide-MHC binding, purified MHC/direct/fluorescence; filed as Kd, often an IC50 or EC50 that approximates it; ≥ and ≤ were set here for values at or beyond the usual limits of such assays; conditions: source organism: Homo sapiens
HLA-B*27:05 = test: as above; conditions: source organism: Homo sapiens
HLA-B*15:42 = test: IEDB peptide-MHC binding, purified MHC/competitive/fluorescence; filed as Kd, often an IC50 or EC50 that approximates it; ≥ and ≤ were set here for values at or beyond the usual limits of such assays
HLA-B*45:06 = test: as above
HLA-B*27:20 = test: as above
HLA-B*83:01 = test: as above
HLA-B*07:02 [3] = test: IEDB peptide-MHC binding, purified MHC/competitive/fluorescence; ≥ and ≤ were set here for values at or beyond the usual limits of such assays
HLA-A*03:01 = test: IEDB peptide-MHC binding, purified MHC/competitive/fluorescence; filed as Kd, often an IC50 or EC50 that approximates it; ≥ and ≤ were set here for values at or beyond the usual limits of such assays; conditions: source organism: Toxoplasma gondii
HLA-A*32:15 = test: as above; conditions: source organism: Toxoplasma gondii
HLA-A*68:23 = test: as above; conditions: source organism: Toxoplasma gondii
HLA-B*57:01 = test: IEDB peptide-MHC binding, purified MHC/competitive/radioactivity; filed as Kd, often an IC50 or EC50 that approximates it; ≥ and ≤ were set here for values at or beyond the usual limits of such assays; conditions: source organism: Dengue virus 1 Brazil/97-11/1997
HLA-A*80:01 = test: IEDB peptide-MHC binding, purified MHC/direct/fluorescence; filed as Kd, often an IC50 or EC50 that approximates it; ≥ and ≤ were set here for values at or beyond the usual limits of such assays
HLA-C*08:02 = test: as above
HLA-C*03:03 = test: as above
HLA-C*07:02 = test: as above; conditions: source organism: Mycobacterium tuberculosis str. Haarlem
HLA-B*08:01 = test: as above; conditions: source organism: Bacillus anthracis str. Sterne
HLA-B*08:02 = test: as above; conditions: source organism: Bacillus anthracis str. Sterne
HLA-A*26:03 = test: as above; conditions: source organism: Cryptosporidium parvum Iowa II
HLA-A*01:01 [4] = test: as above
HLA-A*02:17 = test: IEDB peptide-MHC binding, purified MHC/competitive/radioactivity; filed as Kd, often an IC50 or EC50 that approximates it; ≥ and ≤ were set here for values at or beyond the usual limits of such assays; conditions: source organism: Dengue virus 1 Singapore/S275/1990
HLA-A*02:03 = test: as above; conditions: source organism: Dengue virus 1 Brazil/97-11/1997
HLA-A*24:02 = test: as above; conditions: source organism: Dengue virus 1 Brazil/97-11/1997
HLA-A*02:19 = test: IEDB peptide-MHC binding, purified MHC/direct/fluorescence; filed as Kd, often an IC50 or EC50 that approximates it; ≥ and ≤ were set here for values at or beyond the usual limits of such assays; conditions: source organism: dengue virus type 1
HLA-A*02:12 = test: as above; conditions: source organism: dengue virus type 1
HLA-A*02:11 = test: as above; conditions: source organism: dengue virus type 1
[5] = source organism: Zaire ebolavirus
[6] = source organism: Listeria monocytogenes EGD-e
[7] = source organism: Pan troglodytes
[8] = source organism: Toxoplasma gondii
[9] = source organism: dengue virus type 1
[10] = source organism: Mycobacterium tuberculosis str. Haarlem
[11] = source organism: Bacillus anthracis str. A2012
[12] = source organism: Cryptosporidium parvum Iowa II
[13] = source organism: West Nile virus
[14] = source organism: Vibrio parahaemolyticus

Which Kd (HLA-B*07:02 [1]; source organism: Influenza A virus (A/Swine/Colorado/23619/99(H3N2))) does the source give for MPRQKIIGPL here?
The Kd was 6.6 nM.

For TSDGKEYTY, which IC50 (HLA-A*01:01 [2]; [5]) is on record?
The IC50 was 3450 nM.

For RGDLETLGY, which IC50 (HLA-A*01:01 [2]; source organism: Vaccinia virus WR) is on record?
The IC50 was 9250 nM.

RMMGKTNPL was tested. Which Kd (HLA-C*06:02; [6]) did it give?
Its Kd is no less than 20000 nM.

And the Kd (HLA-C*14:02; [6])?
Its Kd is no more than 1 nM.

And the Kd (HLA-C*12:03; [6])?
Its Kd is 156 nM.

And the Kd (HLA-C*15:02; [6])?
Its Kd is 16 nM.

What about the Kd (HLA-B*48:01; [6]) of the same sequence?
The Kd was 97.4 nM.

For FTWPWMKLF, which Kd (HLA-A*26:02) is on record?
Its Kd is 469 nM.

How did the IC50 (HLA-A*01:01 [2]; [5]) turn out when PDDGSYGEY was run?
The IC50 was no less than 277000 nM.

Which Kd (HLA-B*07:02 [1]; source organism: Shigella flexneri 2a str. 301) does the source give for KPVGWAMSF here?
Its Kd is 11.9 nM.

What about the Kd (HLA-B*15:01) of the same sequence?
The Kd was 4000 nM.

And the Kd (HLA-B*35:01)?
The Kd was 0.4 nM.

RRHWGGNVL was tested. Which Kd (HLA-B*40:01) did it give?
The Kd was no less than 43000 nM.

And the Kd (HLA-B*27:05)?
Its Kd is 2300 nM.

And the Kd (HLA-B*15:42; [7])?
The Kd was no less than 5000 nM.

And the Kd (HLA-B*45:06; [7])?
The Kd was no less than 5000 nM.

What about the Kd (HLA-B*27:20; [7]) of the same sequence?
Its Kd is 0.2 nM.

What about the Kd (HLA-B*83:01; [7]) of the same sequence?
The Kd was no less than 5000 nM.

APDGIRGFP was tested. Which IC50 (HLA-B*07:02 [3]; [5]) did it give?
Its IC50 is 23400 nM.

MTMLIKAFK was tested. Which Kd (HLA-B*15:42; [8]) did it give?
The Kd was no less than 5000 nM.

And the Kd (HLA-B*45:06; [8])?
The Kd was no less than 5000 nM.

What about the Kd (HLA-A*03:01) of the same sequence?
Its Kd is 7.7 nM.

What about the Kd (HLA-A*32:15) of the same sequence?
The Kd was 194 nM.

What about the Kd (HLA-B*83:01; [8]) of the same sequence?
Its Kd is no less than 5000 nM.

What about the Kd (HLA-A*68:23) of the same sequence?
The Kd was 4.5 nM.

How did the IC50 (HLA-B*07:02 [3]; source organism: Sudan ebolavirus) turn out when GPCPGDYAF was run?
Its IC50 is no less than 722000 nM.

ESDPEGALW was tested. Which Kd (HLA-B*57:01) did it give?
Its Kd is 391 nM.

And the Kd (HLA-A*80:01; [9])?
The Kd was no less than 20000 nM.

Which Kd (HLA-C*08:02; [10]) does the source give for YVYPDNLPV here?
Its Kd is 78 nM.

And the Kd (HLA-C*03:03; [10])?
Its Kd is 2 nM.

And the Kd (HLA-C*07:02)?
Its Kd is 2170 nM.

How did the Kd (HLA-C*06:02; [11]) turn out when YMKERFTVL was run?
The Kd was 149 nM.

And the Kd (HLA-C*14:02; [11])?
Its Kd is 173 nM.

What about the Kd (HLA-B*08:01) of the same sequence?
The Kd was 15 nM.

What about the Kd (HLA-B*08:02) of the same sequence?
The Kd was 282 nM.

And the Kd (HLA-C*15:02; [11])?
Its Kd is 1500 nM.

What about the Kd (HLA-B*15:42; [11]) of the same sequence?
The Kd was no less than 5000 nM.

What about the Kd (HLA-B*45:06; [11]) of the same sequence?
The Kd was no less than 5000 nM.

And the Kd (HLA-B*27:20; [11])?
Its Kd is 22.6 nM.

And the Kd (HLA-B*83:01; [11])?
The Kd was no less than 5000 nM.

With ETRYSWAIL as the sequence, how does the Kd (HLA-A*26:03) read?
Its Kd is 454 nM.

Which results are given for WMYNIQPYL?
Kd (HLA-C*12:03; [12]): 454 nM; Kd (HLA-C*03:03; [12]): 83 nM; Kd (HLA-B*48:01; [12]): 34.7 nM

For MSPHRVPNY, which Kd (HLA-A*80:01; [13]) is on record?
The Kd was no less than 20000 nM.

What about the Kd (HLA-A*01:01 [4]; [13]) of the same sequence?
Its Kd is no less than 20000 nM.

With MTPGRGLSK as the sequence, how does the Kd (HLA-A*80:01; [14]) read?
Its Kd is no less than 20000 nM.

What about the Kd (HLA-A*01:01 [4]; [14]) of the same sequence?
Its Kd is no less than 20000 nM.

With YMPSVVETL as the sequence, how does the Kd (HLA-A*02:17) read?
Its Kd is 14.6 nM.

And the Kd (HLA-A*02:03)?
The Kd was 15 nM.

What about the Kd (HLA-A*24:02) of the same sequence?
The Kd was 1010 nM.

What about the Kd (HLA-A*02:19) of the same sequence?
The Kd was 36 nM.

And the Kd (HLA-A*02:12)?
Its Kd is 9 nM.

And the Kd (HLA-C*08:02; [9])?
The Kd was no less than 20000 nM.

What about the Kd (HLA-A*02:11) of the same sequence?
Its Kd is no more than 1 nM.

Source: the Immune Epitope Database (IEDB)
